The data set “SEC” deals with the molecule itself. Put plainly: SEC. On the technique in general: In gel filtration, larger molecules generally elute earlier.
The data set “crystal structure” deals with the molecule itself. Kind of data set: crystal structure.

B1: EcoKMcrA with C-terminal His6-tag (EcoKMcrA_(1-277)-GHHHHHHG), wild type (enzyme, E. coli (K strains), UniProt P24200 1-277, looked up)
chain: MHVFDNNGIELKAECSIGEEDGVYGLILESWGPGDRNKDYNIALDYIIERLVDSGVSQVVVYLASSSVRKHMHSLDERKIHPGEYFTLIGNSPRDIRLKMCGYQAYFSRTGRKEIPSGNRTKRILINVPGIYSDSFWASIIRGELSELSQPTDDESLLNMRVSKLIKKTLSQPEGSRKPVEVERLQKVYVRDPMVKAWILQQSKGICENCGKNAPFYLNDGNPYLEVHHVIPLSSGGADTTDNCVALCPNCHRELHYSKNAKELIEMLYVNINRLQK
On to B1, for which the “stoichiometry N” value in “SEC” was determined as 2.

B2: EcoKMcrA K196E variant with N-terminal His6-tag (…-EcoKMcrA_(1-277)) (enzyme, E. coli (K strains), UniProt P24200 1-277, looked up)
chain: MHVFDNNGIELKAECSIGEEDGVYGLILESWGPGDRNKDYNIALDYIIERLVDSGVSQVVVYLASSSVRKHMHSLDERKIHPGEYFTLIGNSPRDIRLKMCGYQAYFSRTGRKEIPSGNRTKRILINVPGIYSDSFWASIIRGELSELSQPTDDESLLNMRVSKLIKKTLSQPEGSRKPVEVERLQKVYVRDPMVEAWILQQSKGICENCGKNAPFYLNDGNPYLEVHHVIPLSSGGADTTDNCVALCPNCHRELHYSKNAKELIEMLYVNINRLQK
Consider B2, for which the binding result in “crystal structure” is on record as “binds”.

In general, stoichiometry N refers to a count of units in the complex or per binding partner.

Source of the values: paper PMC6182155 (Nucleic Acids Research, 2018).
